B1: Ab0054 (antibody, human IgG1, kappa, V domains shown)
VH: QVQLVQSGAEVKKPGSSVKVSCKASGYRFTDYVINWVRQAPGQGLEWMGQIYPGSDSFHYNQKFQGRATLTADKSTNTAYMELSSLRSEDTAVYYCARFFEGLAYWGQGTLVTVSS
VL: DIQMTQSPSSLSASVGDRVTITCKASQGINNYLSWYQQKPGKAPKSLIYRANRLVDGVPSRFSGSGSGTDFTLTISSLQPEDFATYYCLQYDEFPLTFGGGTKVEIKR
notes: Humanized IgG; also called Ab0001-huV5-VL / Ab0001-huV4-VH
B2: Ab0052 (antibody, human IgG1, kappa, V domains shown)
VH: QVQLVQSGAEVKKPGSSVKVSCKASGYRFTDYVINWVRQAPGQGLEWMGQIYPGSDSFHYNQKFQGRATLTADKSTNTAYMELSSLRSEDTAVYYCARFFEGLAYWGQGTLVTVSS
VL: DIQMTQSPSSLSASVGDRVTITCKASQGINNYLSWYQQKPGKAPKSLIYRANRLVDGVPSRFSGSGSGQDYTLTISSLQPEDFATYYCLQYDEFPLTFGGGTKVEIKR
notes: Humanized IgG; also called Ab0001-huV3-VL / Ab0001-huV4-VH
B3: Ab0062 (antibody, human IgG1, kappa, V domains shown)
VH: QVQLVQSGAEVKKPGSSVKVSCKASGYRFTDYVINWVRQAPGQGLEWMGQIYPGSDAFHYNQKFQGRATLTADKSTNTAYMELSSLRSEDTAVYYCARFFEGLAYWGQGTLVTVSS
VL: DIQMTQSPSSLSASVGDRVTITCKASQGINNYLSWYQQKPGKAPKSLIYRANRLVDGVPSRFSGSGSGTDFTLTISSLQPEDFATYYCLQYDEFPLTFGGGTKVEIKR
notes: Humanized IgG; also called Ab062; Ab0001-huV5-VL / Ab0001-huV6-VH
B4: Ab0063 (antibody, human IgG1, kappa, V domains shown)
VH: QVQLVQSGAEVKKPGSSVKVSCKASGYRFTDYVINWVRQAPGQGLEWMGQIYPGSDSFHYNQKFQGRATLTADKSTNTAYMELSSLRSEDTAVYYCARFFEGLAYWGQGTLVTVSS
VL: DIQMTQSPSSLSASVGDRVTITCKASQGINNYLSWYQQKPGKAPKSLIYRANRLVSGVPSRFSGSGSGTDFTLTISSLQPEDFATYYCLQYDEFPLTFGGGTKVEIKR
notes: Humanized IgG; also called Ab0001-huV8-VL / Ab0001-huV4-VH
B5: Ab0053 (antibody, human IgG1, kappa, V domains shown)
VH: QVQLVQSGAEVKKPGSSVKVSCKASGYRFTDYVINWVRQAPGQGLEWMGQIYPGSDSFHYNQKFQGRATLTADKSTNTAYMELSSLRSEDTAVYYCARFFEGLAYWGQGTLVTVSS
VL: DIQMTQSPSSLSASVGDRVTITCKASQGINNYLSWYQQKPGKAPKSLIYRANRLVDGVPSRFSGSGSGTDYTLTISSLQPEDFATYYCLQYDEFPLTFGGGTKVEIKR
notes: Humanized IgG; also called Ab0001-huV4-VL / Ab0001-huV4-VH
B6: Ab0064 (antibody, human IgG1, kappa, V domains shown)
VH: QVQLVQSGAEVKKPGSSVKVSCKASGYRFTDYVINWVRQAPGQGLEWMGQIYPGSDTFHYNQKFQGRATLTADKSTNTAYMELSSLRSEDTAVYYCARFFEGLAYWGQGTLVTVSS
VL: DIQMTQSPSSLSASVGDRVTITCKASQGINNYLSWYQQKPGKAPKSLIYRANRLVSGVPSRFSGSGSGTDFTLTISSLQPEDFATYYCLQYDEFPLTFGGGTKVEIKR
notes: Humanized IgG; also called Ab0001-huV8-VL / Ab0001-huV5-VH
B7: Ab0061 (antibody, human IgG1, kappa, V domains shown)
VH: QVQLVQSGAEVKKPGSSVKVSCKASGYRFTDYVINWVRQAPGQGLEWMGQIYPGSDTFHYNQKFQGRATLTADKSTNTAYMELSSLRSEDTAVYYCARFFEGLAYWGQGTLVTVSS
VL: DIQMTQSPSSLSASVGDRVTITCKASQGINNYLSWYQQKPGKAPKSLIYRANRLVDGVPSRFSGSGSGTDFTLTISSLQPEDFATYYCLQYDEFPLTFGGGTKVEIKR
notes: Humanized IgG; also called Ab0001-huV5-VL / Ab0001-huV5-VH

Results on seven molecules are retold here after patent US20230101266A1 (GENEQUANTUM HEALTHCARE SUZHOU, published 2023).

This assay deals with T1, recombinant extracellular domain of human TROP2 (human, UniProt P09758 27-274).
T1 construct: extracellular domain; Commercial protein (Acrobiosystem), used as the analyte in SPR; also called Trophoblast antigen 2; GA733-1
T1 sequence (looked up): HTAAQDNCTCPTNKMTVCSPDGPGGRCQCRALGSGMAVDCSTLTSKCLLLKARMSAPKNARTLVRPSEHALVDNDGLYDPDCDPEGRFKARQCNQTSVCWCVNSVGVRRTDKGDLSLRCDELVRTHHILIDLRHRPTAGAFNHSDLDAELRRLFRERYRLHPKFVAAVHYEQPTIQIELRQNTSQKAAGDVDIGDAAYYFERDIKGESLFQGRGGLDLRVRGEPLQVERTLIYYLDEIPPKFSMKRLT
The assay can be described thus: SPR, Biacore 8K, antibody captured on Protein A chip, TROP2 ECD as analyte, 25 C, 1:1 model. How it is done: Binding kinetics and affinity analysis are performed. Surface Plasmon Resonance (SPR) analysis is performed on a Biacore 8K (GE healthcare) with a Sensor Chip Protein A (GE healthcare) following manufacturer's instructions. All measurements are performed at 25° C. in the HBS-EP+ buffer (10 mM HEPES, pH 7.4, 150 mM NaCl, 3 mM EDTA, and 0.05% surfactant P20). About 110-140 RU (Resonance unit) of each of the purified antibodies is captured on flow cells 2, 4, 6, 8, 10, 12, 14, 16 (i.e., the reaction surface) of the sensor chip, respectively. Flow cells 1, 3, 5, 7, 9, 11, 13 and 15 are treated with the HBS-EP+ buffer to serve as reference surfaces.
Serial dilutions of the recombinant extracellular domain of human TROP2 (i.e., the analyte) (Acrobiosystem) (243, 81, 27, 9, 3, 1, 0.333, and 0.111 nM, respectively) are prepared in HBS-EP+ buffer. Capturing of the antibodies is followed by a three-minute injection (association phase) of serial dilutions of TROP2 at a flow rate of 30 μL/min and ten minutes of buffer flow (dissociation phase). The chip surface is regenerated by two pulses of 30-second injection of 10 mM Glycine-HCl pH 1.5 at a flow rate of 50 μL/min. The collected data are processed on a Biacore 8K Evaluation software using methods known in the art, comprising the following steps: (1) setting the response on the y-axis and the start of the injection on the x-axis to zero, (2) performing double referencing by firstly subtracting the reference surface data from the reaction surface data to get the analyte injection curves, and then subtracting the buffer injection curves from the analyte injection curves, and (3) performing the kinetic analysis using the 1:1 binding model with a global fit. The result for each antibody is presented as Ka (on-rate), Kd (off-rate) and KD (affinity constant) (Table 3).
On the technique in general: Surface plasmon resonance follows binding to a sensor surface in real time, without labels.
For orientation: Kd means the free concentration of one partner at which half of the binding sites on the other are occupied at equilibrium, for simple one-to-one binding. As a reminder, the koff is the first-order rate constant of dissociation. Usually kon stands for a measure of how fast the partners come together. With B1, the Kd worked out at 0.43 nM, the dissociation rate constant (koff) is 0.000416 s⁻¹ and the kon is 975000 M⁻¹ s⁻¹.
For the molecule B2, the Kd worked out at 0.31 nM, the koff was 0.000321 s⁻¹ and the kon came to 1.03e+06 M⁻¹ s⁻¹.
In the case of B3, the Kd worked out at 0.81 nM, the koff turned out to be 0.000719 s⁻¹ and the kon turned out to be 889000 M⁻¹ s⁻¹.
For B4, the dissociation constant Kd is 0.46 nM, the off-rate (koff) amounted to 0.000394 s⁻¹ and the on-rate (kon) was determined as 862000 M⁻¹ s⁻¹.
Consider B5, for which the Kd turned out to be 0.32 nM, the dissociation rate constant (koff) was 0.000326 s⁻¹ and the kon is 1.01e+06 M⁻¹ s⁻¹.
For B6, the Kd was 0.76 nM, the dissociation rate constant (koff) is 0.000547 s⁻¹ and the association rate constant (kon) worked out at 722000 M⁻¹ s⁻¹.
Take B7: the Kd stood at 0.62 nM, the koff turned out to be 0.000545 s⁻¹ and the on-rate (kon) came out at 874000 M⁻¹ s⁻¹.
